Laboratory results taken from patent US20240026407A1, “MODIFICATION OF SAPONINS” (GLAXOSMITHKLINE BIOLOGICALS SA, priority 2020, published 2024).

B1: 1053 (protein, listed as Solibacter usitatus)
chain: MKRAALLILLAGTLFGAASVRPQQLRCEYRVNPQGIDVKDPRLSWILAPVNPKGRGLTQSAYRILVSSSEAALRGNSGDLWDSGKIVSAESTQVAYQGKPLNSGTAAFWKVQVWDQDGQPSDWSAPAQWSMGLLRAEDWKGRWIGRDEAGVYKDSASDYQLLERARWIWDAGNAQAGAPVGNRFFRAAFTVPAGRKVTRALSVIGADNTADVYLNGEPIAVESKLPLPHAVDITHLVRPGENVIAVRATHSRADRPAGLIGGVRVEFASGDPVLLQTSNQWRTVAKPDPGWENPGFLDAAWQASKDLGAFGMAPWEGVGFLAQHRLPGRLLRKEFALEKKLRRATVYYSGLGLSELYLNGAKVGDHVLSPGLTDYDKHVLYVTFDVTRQLVQGKNAIGLMLGNGRYYAPRNDVPIKTRDFGYPKALVQLDLEFEDGSRANVVSDETWKYSADGPIRANNEYDGEEYDARREIAGWNKAGFDDAGWEAAKIVGASSGAVVAQMAEPLRVTETVKPLGVKKLRPGVFVFDMGQNLVGWCRLRVTGPKGTQVKLRHSETLKDDGSLYVDNLRSAKAEDIYTLKGVGAEVYEPRFTYHGFRYVEVTGFPGEPSASALDARVVHDDMERAGEFTSSSGLLNKIHHNMFWGIRGNYRSIPTDCPQRDERQGWLGDRGQVSRSESYMFDVAGFYSKWMTDLEDSQRPSGSIPDVSPNYWPLYNDDLTWPGTIIFIHGMLYDQYGDKRVLARGYPAMKKWMDYEKTFVKDGLISKDQYADWCVPPEDPKLIHSQDPRRVTDKTLIATSYYYQFLRTMSRYARILDRPTDAADFDKQADQVQDTFQRRFFKLESGMYDNGTQTSSILPLYFGMIPADFRPAVVQTLVRNIELQSNGHVGTGLVGAQWLMRTLSDAGYADLAYKIATQKTYPGWGYMVEQGATTIWELWNGNTADPAMNSGNHVMQIGDLAVWMYEYLAGIRTDPEKPGFRHAVIRPYPAGDLSFVKATHKTMYGPLASSWKREKGEFMLDVTVPANTTATVWVPAKDAASVTESGKKATDVKGVKFVRSENGSAIFEVSSGAYSFKSGI
B2: 1018 (protein)
chain: MFELDRRALLLGLPVTSGALADGASQTSRWRAVGLRTAMRRQPLGIDDPQPMLSWRLEGPAGAVQSAYQIMVASTAEKLHAGVADLWDSGRVKSSESVGVRYGGAPLKPRQRCVWRVRAWDAAGRASDWSPPATWEMGLIDQSEWIGDWLAVEAADERDDRVAGVRWVETQTPKPHETCRFRLSFRSGGGEGRLAIMAEGKLSKLVLDGRSIELPWRDPNGYGDPPALGLPLQLEAGAHELIAEVTSTGPGEGPGRAALGAQVRVLAADGAARRIVDGWETEAAGAWTPAVVRTAQPHFPWPPTPARLLRRTFTLSKPPTQARLYVSALGGYRIWLNGRRVGDDELQTEPAAYRRHVPYRAYDVTDLLRDGENVVGLIVGDGTFASYQAPDGRYAYGPGPRRVRLFLESRDSGDRVERVATDGEWRHALSPVLMSEIYAGEDHDLRLWPRGWAEPGFDDSGWSRVWTAPPPEGAPCALLSEPIRETRVLKAASIRAVGPGRHIVDFGQNFAGRVRLRVKGAKGAPVIVRHAEILDGQGALDRRNLRVARAEDRYILNGDDAPETLQPSFTYQGFRYAEIEGVAGLDRDMIDGVVLSSDLPEIGVFRTAEPLVQNLWLNSLWSQRSNFMGIPTDCPQRDERLGWTGDAQVFWETAAFNMDVGGFTRGFARTLRDDQAPNGAYPMWSPSPRGLGWGTTTPTPGWADGGVMLPYVAYLHSGDRSIVDENWTAMSAYVSGVLAENPDGLWRRGRGADFGDWLALDGKWPGDETTPKDLIATAMLARSVDQLAQMAAWTGRSAEAKTWRGQADRIKAAFASAFVRADGTVGNGSHTGYILALRLGLAPQPLRKAAGEHLAADIRRRGTLLSTGFLGTPLALDALADHGHAGLAFDLLLRTEYPSWGYMVRRGATTTWERWNGDTGDVSMNSFNHYALGAICGFLYRRVAGVEPITPGFGAFRVAPLIDPRLRSAGATVDSVRGRIETDWRVTGDKAVLKVRVPANSRAEVVLPTLTRSLGAGDHTLSVPLAK
modifications: Caulobacter vibrioides
B3: 1066 (protein, listed as Caulobacter segnis)
chain: MQIDRRRVMLLGGAGSLVVAQGEAAPLGAAAISDCRVCGLETPLALGAATPRFSWRLSGPRPQAAYRITVARSAADLSAPRDLVWDSGKVASGQSFDIAFGGPAAAPRQVFWWRVEAWDDKGARAVGRPARWETGLLSASDWNAAWLAAEDATAKADRLAGVHWISGPESITDKTSKRCYRTSFEVPAQSDGTLFLAASGLAGVFLNGQELAAGEEEPTRFTTMSPYPLALRQGRNVIAIAQTPSRDLGGPQPMLCALIRLGGSERRLSTAEGWKTTVNAPEGWTLPDFDDGAWPAATTARNRPRGQPLPPGAATHLRRAFRLDKPVAQARLYATALGAYEAWINGAPADERKMAPEPTNLLERVLYQAYDVTAALRAGDNVLGLWVGDGWYASEFSANARFCFGPAPCRAMAQLEILFIDGSRQVIATDDQWRIAPSAILTSEIYDGEVYDARQEIKDWALPGTPQGGWRPAETVEAPNLPIDPQVSPPIRVTQRLKPKAVTSPKPGVHVFDFGQNFAGWAELAISGKAGTRIELLFGEYLKPDGQVDQANLRTAFARDTYVLKGQGREVWSPRFTYHGFRYVEVRGLANAPAADLLTGLVGHNDIRVSGVLRVGAPVVEQFWRNSVWSQRSNFFGLPTDCPQRDERLGWLGDAAVFWPAAAYNMDVEAFTRRFMGDVRRAQRPDGQFPDCIPPFMVPSSRSAPGWSDAGVILPYTAWRQYGDTGVIAENWEAMERYLAFILAKNPDYLWKSSKGNDYGDWLAVDAKYLGEATTPKDLIGTAFWAADAAMMRDMAKAIGKAEAAERYRALFEAIRAAFAGAYVQADGKIGNGSQTSYILAIRFGLLSPEQASEAGRRLAADIAARGGKLSTGFLGTPHILDALADTGHEATAVGLLLQRDYPSWGYMVTKGATTMWERWNSDTGDLSMNSYNHYAFGAIGDFLFRRIAGLAAVEPGFAKVVIAPIFDRRLGSAGADYDSVSGRLSSNWRYEGDTVRLDLSIPPGVQAEVVIPTAARAVRVDGRPVPSARFRVERGQHRVVFTA

How the values were obtained:
Assay type in all cases: biochemical, Quillaja saponaria
[1] = Experiment 6-2: screening of rhamnosidases for derhamnosylation of saponins in treated bark extract (25%), relative % of Left, Middle and Right Peak by UV HPLC; details: TBE 25%, pH 7.4, 19.5 h; for Left Peak: mainly QS-17 family, negative control 24%; for Middle Peak: mainly QS-18 and desglucosyl-QS-17 family, negative control 50%; for Right Peak: mainly QS-21 family, negative control 26%
[2] = Experiment 6-1: screening of rhamnosidases for derhamnosylation of saponins in treated bark extract (2%), desglucosyl-QS-17 2134 to QS-21 1988 (PAR %); details: TBE 2%, pH 7.5, 30 degC, 18 h; TIC peak area ratio percent, LCMS/MS; negative controls 2.719, 2.158
[3] = Experiment 6-1: specificity of rhamnosidases towards other rhamnose residues (C3 saccharide rhamnose, C28 saccharide rhamnose); details: TBE 2%, pH 7.5, 30 degC, 18 h; LCMS/MS; negative controls 0.18, 0.17
[4] = Experiment 6-1: screening of rhamnosidases for derhamnosylation of saponins in treated bark extract (2%), QS-17 2310 to QS-18 2164 (PAR %); details: TBE 2%, pH 7.5, 30 degC, 18 h; TIC peak area ratio percent, LCMS/MS; negative controls 3.061, 2.429
[5] = Experiment 6-3: screening of rhamnosidases for derhamnosylation of saponins in crude bark extract (80%), relative % of Left, Middle and Right Peak by UV HPLC; details: CBE 80%, pH 7.4, 30 degC, 19.5 h; for Left Peak: mainly QS-17 family, negative control 27%; for Middle Peak: mainly QS-18 and desglucosyl-QS-17 family, negative control 48%; for Right Peak: mainly QS-21 family, negative control 26%
Procedure, shortened: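 Clarified lysates of expressed rhamnosidase variants were incubated with crude bark extract (pH 7.4, final 80%) at 30 degC with shaking for 19.5 h, then quenched with MeCN+2% AcOH. UV HPLC gave relative % of Left (QS-17), Middle (QS-18/desglucosyl-QS-17) and Right (QS-21) peaks.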

[6] = Experiment 6-1: screening of rhamnosidases for derhamnosylation of saponins in treated bark extract (2%), QS-17 2296 to QS-18 2150 (PAR %); details: TBE 2%, pH 7.5, 30 degC, 18 h; TIC peak area ratio percent of rhamnosylated starting saponin to derhamnosylated product, LCMS/MS; negative controls 4.876, 5.225

| Molecule | Left Peak [1] [%] | Middle Peak [1] [%] | Right Peak [1] [%] | Peak75 (PAR %) [2] [%] | ratio PP/QS-21 [3] | Peak57 (PAR %) [4] [%] | Left Peak [5] [%] | Middle Peak [5] [%] | Right Peak [5] [%] | QS-17 (PAR %) [6] [%] |
| --- | --- | --- | --- | --- | --- | --- | --- | --- | --- | --- |
| B1 | 20 | 54 | 26 | 0.944 | 0.18 | 0.550 | 26 | 48 | 26 | 1.127 |
| B2 | 22 | 52 | 26 | 2.651 | 0.17 | 0.547 | 26 | 48 | 26 | 1.512 |
| B3 | 20 | 53 | 27 | 1.220 | 0.18 | 0.896 | 26 | 48 | 27 | 2.194 |
